Data taken from US20060084618, “Adiponectin promoter and use thereof” (published 2006).

B1: adiponectin PPRE probe (-291 to -267) (dsDNA)
DNA 1: TGGTTTTGACTTTTGCCCCATCTTC
DNA 2: GAAGATGGGGCAAAAGTCAAAACCA
B2: adiponectin LRH-RE probe (-245 to -221) (dsDNA)
DNA 1: AATAAGGGTCAAGGCCTGGAAACAC
DNA 2: GTGTTTCCAGGCCTTGACCCTTATT

Columns and labels:
PPARγ/RXRα heterodimer = PPARγ/RXRα heterodimer (Homo sapiens, UniProt P37231;P19793 P37231:1-505,P19793:1-462); assay: EMSA; poly(dI-dC), 25 C 20 min then 4 C 15 min; band when both PPARγ and RXRα present; competed by 10x and 50x unlabeled wild type; conditions: tags: TNT T7 Quick Coupled (Promega); label: 32P
Method: For the binding reaction, human PPARγ and RXRα protein were synthesized in vitro by using TNT T7 Quick Coupled Transcription/Translation Systems (Promega corporation) according to a supplyer's protocol. […] The binding reaction was performed in 20 μl of a solution including 1 μg of poly (dI-dC), 1 μl of the in vitro synthesized nuclear receptor solution, and 200,000 cpm of the labeled probe. After mixing, it was incubated for 20 minutes at 25° C. and was left for 15 minutes at 4° C. The labeled probe binding to nuclear receptors was separated from the free probe by electrophoresis using 4% of polyacrylamide gel. The electrophoresis was executed using 0.5× TBE buffer (45 mM Tris, 45 mM boric acid, and 1 m M EDTA) for 90 minutes under a voltage of 200V. After the electrophoresis, the gel was dried and analyzed by BAS2500 system (Fuji Photo Film Co., Ltd.). To confirm that the labeled probe binds to nuclear receptors specifically, the competitive reactions were executed.

LRH-1 = LRH-1 (Homo sapiens, UniProt O00482 O00482:1-541); assay: EMSA; conditions as Example 4; competed by 10x and 50x unlabeled wild type; conditions: protein: synthetic; tags: synthesized in vitro from human LRH-1 expression plasmid; label: 32P
LRH-1, sequence (O00482 whole entry, one chain of several): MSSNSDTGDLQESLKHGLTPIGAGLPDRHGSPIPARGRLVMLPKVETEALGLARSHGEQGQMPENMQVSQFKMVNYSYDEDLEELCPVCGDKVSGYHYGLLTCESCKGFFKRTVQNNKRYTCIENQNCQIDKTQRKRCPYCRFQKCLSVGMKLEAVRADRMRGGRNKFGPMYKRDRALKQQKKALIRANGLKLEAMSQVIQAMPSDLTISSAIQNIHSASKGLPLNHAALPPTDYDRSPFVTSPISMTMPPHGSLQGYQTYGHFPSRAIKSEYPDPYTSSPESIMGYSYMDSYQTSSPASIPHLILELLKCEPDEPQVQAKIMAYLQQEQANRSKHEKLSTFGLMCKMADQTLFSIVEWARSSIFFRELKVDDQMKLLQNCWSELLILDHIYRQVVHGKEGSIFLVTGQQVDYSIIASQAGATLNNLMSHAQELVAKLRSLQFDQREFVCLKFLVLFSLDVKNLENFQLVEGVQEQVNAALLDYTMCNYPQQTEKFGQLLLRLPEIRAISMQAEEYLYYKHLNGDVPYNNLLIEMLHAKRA
Method: To confirm the direct binding of LRH-1 to the regulatory sequence LRH-RE found in human adiponectin promoter region, gel shift assay was executed. […] LRH-1 protein used was synthesized in vitro using human LRH-1 expression plasmid as template. […] In the competitive reaction, identical oligoDNAs to the labeled probe were used as wild-type competitors. […] 10 times or 50 times higher concentration of each unlabeled oligoDNAs was added into the reaction.

PPARγ/RXRα heterodimer, sequence (P37231 whole entry, chain 1 of 2): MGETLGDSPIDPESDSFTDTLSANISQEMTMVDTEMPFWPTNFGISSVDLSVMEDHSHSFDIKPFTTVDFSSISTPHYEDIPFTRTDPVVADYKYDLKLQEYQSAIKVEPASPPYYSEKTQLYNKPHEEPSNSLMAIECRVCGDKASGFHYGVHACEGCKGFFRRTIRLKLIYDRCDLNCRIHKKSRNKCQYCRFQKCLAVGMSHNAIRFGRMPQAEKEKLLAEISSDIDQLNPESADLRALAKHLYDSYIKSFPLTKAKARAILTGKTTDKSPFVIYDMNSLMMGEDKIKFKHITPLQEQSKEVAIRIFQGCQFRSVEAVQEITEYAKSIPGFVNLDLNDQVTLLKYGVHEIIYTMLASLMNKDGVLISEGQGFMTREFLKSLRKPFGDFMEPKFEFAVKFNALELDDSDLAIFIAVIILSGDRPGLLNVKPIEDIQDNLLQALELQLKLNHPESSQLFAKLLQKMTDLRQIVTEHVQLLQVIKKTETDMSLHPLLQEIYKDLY
PPARγ/RXRα heterodimer, sequence (P19793 whole entry, chain 2 of 2): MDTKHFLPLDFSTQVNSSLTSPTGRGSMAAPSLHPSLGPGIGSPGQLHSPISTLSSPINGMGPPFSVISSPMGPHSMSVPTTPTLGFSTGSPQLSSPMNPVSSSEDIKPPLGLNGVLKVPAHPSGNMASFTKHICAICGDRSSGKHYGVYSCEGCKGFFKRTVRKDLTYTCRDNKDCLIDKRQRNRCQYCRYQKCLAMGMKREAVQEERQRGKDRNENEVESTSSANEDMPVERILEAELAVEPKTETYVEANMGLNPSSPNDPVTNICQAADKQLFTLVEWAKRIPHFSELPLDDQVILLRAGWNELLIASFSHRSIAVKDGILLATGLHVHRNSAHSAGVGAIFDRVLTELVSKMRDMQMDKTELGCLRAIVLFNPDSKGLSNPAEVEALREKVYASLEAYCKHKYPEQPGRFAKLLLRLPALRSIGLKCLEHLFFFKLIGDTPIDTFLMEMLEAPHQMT

Binder	binding result (PPARγ/RXRα heterodimer)	binding result (LRH-1)
B1	binds	
B2		binds
